Test results published in US20260001928A1 (CORTERIA PHARMACEUTICALS, priority 2022, published 2026).
*1 amine or outer side, *2 acyl side, *3 side chain or, on linkers, in order; H or OH if unused. Where a SMILES comes first, the peptide text is derived from it. Where no end group is shown, it is not given here. Side-chain parts run from the residue outwards. [ ]: non-standard residue; d: D form. The star is where a group is joined. C20 diacid = O=C(O)CCCCCCCCCCCCCCCCCCC(=O)*; γGlu = O=C(O)[C@H](CCC(=O)[*:2])N[*:1]; NMeI = CC[C@H](C)[C@H](NC)C(=O)O; Pentanoyl = CCCCC(=O)*; AEEA = NCCOCCOCC(=O)O; Aib = CC(C)(N)C(=O)O

T1: CRF1R (corticotropin-releasing factor receptor 1), on the CRF1R-overexpression CHO-K1 cell line clone 2 (UniProt P34998 24-415, limits assumed)
T1 sequence (looked up): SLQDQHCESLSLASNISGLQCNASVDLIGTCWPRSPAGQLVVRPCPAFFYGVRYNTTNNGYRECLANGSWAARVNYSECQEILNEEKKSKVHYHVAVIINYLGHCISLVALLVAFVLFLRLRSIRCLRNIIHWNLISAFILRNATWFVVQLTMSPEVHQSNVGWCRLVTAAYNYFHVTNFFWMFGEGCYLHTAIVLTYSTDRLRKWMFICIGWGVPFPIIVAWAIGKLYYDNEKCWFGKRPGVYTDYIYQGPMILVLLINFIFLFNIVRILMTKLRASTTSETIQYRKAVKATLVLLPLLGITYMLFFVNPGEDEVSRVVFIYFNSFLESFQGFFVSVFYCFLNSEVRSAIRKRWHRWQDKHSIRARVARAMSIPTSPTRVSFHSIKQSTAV

B1: peptide of SEQ ID NO: 228 (peptide)
peptide: Pentanoyl-VLSLD[dV]PIGLK([γGlu-C20 diacid])KILLEQEKQKKQREQAETN[Aib]QILAQV-NH2
SMILES: CCCCC(=O)N[C@H](C(=O)N[C@@H](CC(C)C)C(=O)N[C@@H](CO)C(=O)N[C@@H](CC(C)C)C(=O)N[C@@H](CC(=O)O)C(=O)N[C@@H](C(=O)N1CCC[C@H]1C(=O)N[C@H](C(=O)NCC(=O)N[C@@H](CC(C)C)C(=O)N[C@@H](CCCCNC(=O)CC[C@H](NC(=O)CCCCCCCCCCCCCCCCCCC(=O)O)C(=O)O)C(=O)N[C@@H](CCCCN)C(=O)N[C@H](C(=O)N[C@@H](CC(C)C)C(=O)N[C@@H](CC(C)C)C(=O)N[C@@H](CCC(=O)O)C(=O)N[C@@H](CCC(N)=O)C(=O)N[C@@H](CCC(=O)O)C(=O)N[C@@H](CCCCN)C(=O)N[C@@H](CCC(N)=O)C(=O)N[C@@H](CCCCN)C(=O)N[C@@H](CCCCN)C(=O)N[C@@H](CCC(N)=O)C(=O)N[C@@H](CCCNC(=N)N)C(=O)N[C@@H](CCC(=O)O)C(=O)N[C@@H](CCC(N)=O)C(=O)N[C@@H](C)C(=O)N[C@@H](CCC(=O)O)C(=O)N[C@H](C(=O)N[C@@H](CC(N)=O)C(=O)NC(C)(C)C(=O)N[C@@H](CCC(N)=O)C(=O)N[C@H](C(=O)N[C@@H](CC(C)C)C(=O)N[C@@H](C)C(=O)N[C@@H](CCC(N)=O)C(=O)N[C@H](C(N)=O)C(C)C)[C@@H](C)CC)[C@@H](C)O)[C@@H](C)CC)[C@@H](C)CC)C(C)C)C(C)C
B2: peptide of SEQ ID NO: 229 (peptide)
peptide: [NMeI]VLSLD[dV]PIGLK([γGlu-C20 diacid])KILLEQEKQKKQREQAETN[Aib]QILAQV-NH2
modifications: N-terminus assumed
SMILES: CC[C@H](C)[C@H](NC)C(=O)N[C@H](C(=O)N[C@@H](CC(C)C)C(=O)N[C@@H](CO)C(=O)N[C@@H](CC(C)C)C(=O)N[C@@H](CC(=O)O)C(=O)N[C@@H](C(=O)N1CCC[C@H]1C(=O)N[C@H](C(=O)NCC(=O)N[C@@H](CC(C)C)C(=O)N[C@@H](CCCCNC(=O)CC[C@H](NC(=O)CCCCCCCCCCCCCCCCCCC(=O)O)C(=O)O)C(=O)N[C@@H](CCCCN)C(=O)N[C@H](C(=O)N[C@@H](CC(C)C)C(=O)N[C@@H](CC(C)C)C(=O)N[C@@H](CCC(=O)O)C(=O)N[C@@H](CCC(N)=O)C(=O)N[C@@H](CCC(=O)O)C(=O)N[C@@H](CCCCN)C(=O)N[C@@H](CCC(N)=O)C(=O)N[C@@H](CCCCN)C(=O)N[C@@H](CCCCN)C(=O)N[C@@H](CCC(N)=O)C(=O)N[C@@H](CCCNC(=N)N)C(=O)N[C@@H](CCC(=O)O)C(=O)N[C@@H](CCC(N)=O)C(=O)N[C@@H](C)C(=O)N[C@@H](CCC(=O)O)C(=O)N[C@H](C(=O)N[C@@H](CC(N)=O)C(=O)NC(C)(C)C(=O)N[C@@H](CCC(N)=O)C(=O)N[C@H](C(=O)N[C@@H](CC(C)C)C(=O)N[C@@H](C)C(=O)N[C@@H](CCC(N)=O)C(=O)N[C@H](C(N)=O)C(C)C)[C@@H](C)CC)[C@@H](C)O)[C@@H](C)CC)[C@@H](C)CC)C(C)C)C(C)C
B3: peptide of SEQ ID NO: 239 (peptide)
peptide: [NMeI]VLSLD[dV]PIKLK([AEEA-AEEA-γGlu-C20 diacid])KILLEQEKQK[Aib]QREQAETN[Aib]QILAQV-NH2
modifications: N-terminus assumed
SMILES: CC[C@H](C)[C@H](NC)C(=O)N[C@H](C(=O)N[C@@H](CC(C)C)C(=O)N[C@@H](CO)C(=O)N[C@@H](CC(C)C)C(=O)N[C@@H](CC(=O)O)C(=O)N[C@@H](C(=O)N1CCC[C@H]1C(=O)N[C@H](C(=O)N[C@@H](CCCCN)C(=O)N[C@@H](CC(C)C)C(=O)N[C@@H](CCCCNC(=O)COCCOCCNC(=O)COCCOCCNC(=O)CC[C@H](NC(=O)CCCCCCCCCCCCCCCCCCC(=O)O)C(=O)O)C(=O)N[C@@H](CCCCN)C(=O)N[C@H](C(=O)N[C@@H](CC(C)C)C(=O)N[C@@H](CC(C)C)C(=O)N[C@@H](CCC(=O)O)C(=O)N[C@@H](CCC(N)=O)C(=O)N[C@@H](CCC(=O)O)C(=O)N[C@@H](CCCCN)C(=O)N[C@@H](CCC(N)=O)C(=O)N[C@@H](CCCCN)C(=O)NC(C)(C)C(=O)N[C@@H](CCC(N)=O)C(=O)N[C@@H](CCCNC(=N)N)C(=O)N[C@@H](CCC(=O)O)C(=O)N[C@@H](CCC(N)=O)C(=O)N[C@@H](C)C(=O)N[C@@H](CCC(=O)O)C(=O)N[C@H](C(=O)N[C@@H](CC(N)=O)C(=O)NC(C)(C)C(=O)N[C@@H](CCC(N)=O)C(=O)N[C@H](C(=O)N[C@@H](CC(C)C)C(=O)N[C@@H](C)C(=O)N[C@@H](CCC(N)=O)C(=O)N[C@H](C(N)=O)C(C)C)[C@@H](C)CC)[C@@H](C)O)[C@@H](C)CC)[C@@H](C)CC)C(C)C)C(C)C

Columns and labels:
human LAD2 cells = assay type: cell-based
Experimental: LAD2 cells (20000 cells/well, 96-well plates and 10,000 cells/well in 384-well plates) were incubated with compounds for 30 min. The R-hexosaminidase released into the supernatants and in cell lysates was quantified using the fluorogenic substrate 4-methylumbelliferyl-N-acetyl-b-D-glucosaminide.
On the day of the assay, the lyophilized peptides were dissolved in DMSO and/or PBS 1× pH 7.4, to obtain stock solutions. The stock solutions were used to prepare working serial dilutions to have final concentrations in assay ranging from 50, 100 or 300 to 0.1 or 0.001 μM. Each peptide was tested in biological duplicates. When compounds were dissolved in DMSO, the final solvent concentration in assay was 0.5% (v/v).
The percentage of degranulation, expressed as % of R-hexosaminidase release, was calculated by dividing the fluorescence signal of the supernatant by the sum of the signals from the supernatant and cell pellet (lysed with Triton X-100, final 1%) and multiplying by 100.
Dose-response curves were generated by plotting the % of R-hexosaminidase release versus total release of cells treated with triton (y-axis) against the concentrations of peptides tested (x-axis). The Mast Cell Degranulation (MCD) EC50 values and standard errors were calculated using XLfit 5.5.0.5 based on the following equation:
4 Parameter Sigmoidal Model: f=(A+((B−A)/(1+((C/x)^D))))
where A=Emin, B=Emax, C=EC50 and D=slope

[1] = molecular target: T1, CRF1R (corticotropin-releasing factor …); assay: cell-based or functional assay

Row | EC50 (human LAD2 cells) [nM] | EC50 [nM] (cAMP, CRF1R-overexpression CHO-K1 cells) [1] | Emax (% I) (cAMP, 100% = Sauvagine at 100 nM) [1] | Molecule
1 | > 300000 | – | – | CC[C@H](C)[C@H](NC)C(=O)N[C@H](C(=O)N[C@@H](CC(C)C)C(=O)N[C@@H](CO)C(=O)N[C@@H](CC(C)C)C(=O)N[C@@H](CC(=O)O)C(=O)N[C@@H](C(=O)N1CCC[C@H]1C(=O)N[C@H](C(=O)N[C@@H](CCCCN)C(=O)N[C@@H](CC(C)C)C(=O)N[C@@H](CCCCNC(=O)CC[C@H](NC(=O)CC[C@H](NC(=O)CCCCCCCCCCCCCCCCCCC(=O)O)C(=O)O)C(=O)O)C(=O)N[C@@H](CCCCN)C(=O)N[C@H](C(=O)N[C@@H](CC(C)C)C(=O)N[C@@H](CC(C)C)C(=O)N[C@@H](CCC(=O)O)C(=O)N[C@@H](CCC(N)=O)C(=O)N[C@@H](CCC(=O)O)C(=O)N[C@@H](CCCCN)C(=O)N[C@@H](CCC(N)=O)C(=O)N[C@@H](CCCCN)C(=O)N[C@@H](CCC(=O)O)C(=O)N[C@@H](CCC(N)=O)C(=O)N[C@@H](CCCNC(=N)N)C(=O)N[C@@H](CCC(=O)O)C(=O)N[C@@H](CCC(N)=O)C(=O)N[C@@H](C)C(=O)N[C@@H](CCC(=O)O)C(=O)N[C@H](C(=O)N[C@@H](CC(N)=O)C(=O)NC(C)(C)C(=O)N[C@@H](CCC(N)=O)C(=O)N[C@H](C(=O)N[C@@H](CC(C)C)C(=O)N[C@@H](C)C(=O)N[C@@H](CCC(N)=O)C(=O)N[C@H](C(N)=O)C(C)C)[C@@H](C)CC)[C@@H](C)O)[C@@H](C)CC)[C@@H](C)CC)C(C)C)C(C)C [Cmpd 242] (H-[NMeI]VLSLD[dV]PIKLK([γGlu-γGlu-C20 diacid])KILLEQEKQKEQREQAETN[Aib]QILAQV-NH2)
2 | – | 90.5 | 62 | B1
3 | – | 203 | 43 | B2
4 | – | > 250 | 0 | B3
